Our source for the Kd values is patent publication US20050074840A1.

The target in the test is human TNF-alpha (hTNF-alpha) (human) (UniProt P01375). Briefly: saturation binding of [125I]TNF-alpha on yeast.

“mutant clone 6 TNFrED-agglutinin fusion (H34P + S57I) displayed on yeast (from UniProt P20840 330-650)” gave a Kd of 1.71 nM. To “mutant clone 11 TNFrED-agglutinin fusion (S87P) displayed on yeast (from UniProt P20840 330-650)” belongs 1.31 nM; to “wild-type TNFrED-agglutinin fusion displayed on the surface of S. cerevisiae BJ2168 (from UniProt P20840 330-650)”, 2.04 nM.

A word on the Kd: it is the constant that tells how readily two partners part at equilibrium. Read a low Kd as tighter binding.
